The labels stand for the following.
T1: Ven-SH3 (Gads, aa.256-322) (mouse, UniProt O89100 256-322)
T1 sequence (looked up): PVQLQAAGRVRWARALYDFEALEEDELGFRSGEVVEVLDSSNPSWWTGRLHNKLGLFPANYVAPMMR

This assay concerns the target T1, Ven-SH3 (Gads, aa.256-322). Kind of assay: FRET or BRET.
For PAPSIDRSTKPPL (peptide, UniProt Q13094 231-243, looked up) [Cer-SLP-76, aa.231-243], binding was put at a Kd of 0.8 µM.
On to PAPSIDRSTRPPL (peptide, UniProt Q13094 231-243, looked up) [Cer-SLP-76 (K240R), aa.231-243], for which the Kd (in general, the equilibrium constant for the complex coming apart) stood at 24 µM.
Molecule PAPSIKRSTKPPL (peptide, UniProt Q13094 231-243, looked up) [Cer-SLP-76 (D236K), aa.231-243] returned a Kd of 7 µM.
In turn, EPPPVDRNLKPDR (peptide, UniProt Q13480 515-527, looked up) [Cer-Gab1, aa.515-527] gave a Kd of 1 µM.
The result for NVPQIDRTKKPAV (peptide, UniProt P40818 403-415, looked up) [Cer-USP8, aa.403-415] reads 4 µM.

The record behind these values is article PMC4814300 (Cell reports, 2016).
